Laboratory results: the DeepSol protein solubility set

assay: soluble on expression in E. coli; label from the status in PepcDB or PDB records

Sequence	soluble on expression in E. coli
MKVIAFVGKHNVGKTTLIERLIPKLKEKGYRVCYLKHDPKGHGVTDKEGSDTHRISKLVEKLALLSPNRVTYWEWGEFKPLEIVKRFFSDCDIVILEGFKWEEEIPKISVGKVDAKNVILTVDRETPLEDIIKVIESLEDMV	soluble
MKVILLITIFLSFYSSAETIVVEDTLFYEVAPTSKDDLLETLNSSSPIREDGNVFHGYTKYEINWRFWWKSNNNQCAFTKVETTLKLKYTMPQLTSSKSDVNVVWSNWYPNLEKHEKGHGKLAKDTAFKIEKDLLSIGPKANCNLLEKAGNKLAYKLMATLKKANKQYDIKTNHGETQNAWLYLHL	not soluble
MKVLLIIPAYNEEENILRTIASIETFKQEVTHFQHELDYVVINDGSTDGTKQILEANQINAIHLVLNLGIGGAVQTGYKYALENEYDVAVQFDGDGQHDINSLPILLEPLAEGKCDFSIGSRFIPGNEASFQSTKMRRFGIRLLSFCIRMASGKTIYDVTSGYRAGNRKVIAFFAKRYPTNYPEPESIVHLIKKRFVIVERPVNMMERLGGVSSIRALASVKYMLEVGSAILIAAFMKEGDLEHHHHHH	soluble
MKVRILGSGTSTGVPQIGCTCPVCTSADPKDNRLRASAIVETEDARILIDCGPDFRAQVLHLPFEKIDGVLITHEHYDHVGGLDDLRPFCRFGAVPIYAEEYVARALRLRMPYCFVDHRYPGVPDIPLQEIEVGHAFSIHHTEVVPLRVMHGRLPILGYRIGRLGYITDMLTMPEESYEQLEGIDVLIMNALRIAPHPTHQNLEEALKVAERIRAKETYFIHMSHDMGLHKKVEKELPENIHLTYDGMEIIF	not soluble
MKVVGLDLGGTKIAAGVFDGKRLLSKVVVPTPKEGGERVAEALAEAAERAEREAGVRGEAIGLGTPGPLDFRRGVIRFAPNIPGVQDFPIRRILEEATGRPVFLENDANAAALAEHHLGAAQGEESSLYLTVSTGIGGGVVLGGRVLRGERGQGGELGHLTLLPGGPACGCGLEGCLEALAAGRALERDATYAFQRPVDTRELFRLFQAGDPKAERLVLQAARYVGIGLASLVKAFDPGVVVLGGGVALNAPEGYWEALLEAYRRYLQGWEAPPLRRARLGAEAGLLGAALTAYLEVKDGSG	soluble
MKVVIASDHGGMNIRKELVSLLEELNIEYIDLGCECEAGSVDYPDFAFPAAEMVANGEVDRGILVCGTGIGMSIAANKVNGIRCALVHDTFSARATREHNDTNMLAMGERVIGAGLARDIAKIWLTTEFEGGRHENRVGKIKTYEAK	not soluble
MKVYLESFGCSASQASAEIMKASIGKLGHELLSPENAGQAEVYICNSCTVKYTTEQKILYKIRSMGEKGVQVIVSGCMPEVQLEDILHANPEAHILGVNAVSRLGDLLSTIEQRKKTGIPGGERLEIRTSEPQGFLNVPRERSNPNIHICQISQGCNFACSYCIVKHARGKLLSFPPEEIIEDIRSAVADGCREIWLTSQDDSQYGMDTGVKLPELLRAISEIPGDFKVRVGMMNPFSVLPILDDLVDAFDSDKIFKLLHLPIQSASHSVLKKMNRLHKMDSVDEIITKFRAHFEDLSLFTDIIVGFCDETDEDFEETIEWVKKYRPEKINISRYSPRPHTKAFSFRNLDSRISVKRSHQLHKVCEQIKIESKNEMIGWKGRVFVSKYTEIGDVLTRTDSYRPVVISGSDLRPGEYAEVKITGAKPGYFLGKLVSLEHHHHHH	soluble
MKWLRLQDLPTDNSFAALPAEFYTRLQPRPPAAPRLLHANAEAAALIGLDPAEFSTQAFLDVFSGHAPLPGGDTLAAVYSGHQFGVWAGQLGEVRGPAGGWELQLKGAGMTPYSRMGDGRAVLRSSVREYLASEAMHGLGIPTTRSLALVVSDDPVMRETVETAAVVTRMAPSFVRFGSFEHWSARRQPEQLRVLADYVIDRFYPECRVAGAGRLDGEHGEILGLLAAVTRRTALLMADWQAVGFCHGVMNTDNMSILGLTLDYGPYGFMDTFQLGHICNHSDSEGRYAWNRQPSVGLWNLYRLASSLHTLAPDPEALRAVLDGYEAVFTQAFHGRMAGKLGLPQFLPEDETLLDDLLQLMHQQGADFTLAFRRLGEAVRGQRQPFEDSFIDRAAAGAWYDRLAARHASDGRAAQARAAAMDEVNPLYVLRNHLAEQAIRAAARGDAGEIDILLKLLRNPYKHQPGYDAYAGLAPDWAAGLEVSCSSLEHHHHHH	not soluble
MKWMCSICCAAVLLAGGAAQAEAVPNEPINWGFKRSVNHQPPDAGKQLNSLIEKYDAFYLGNTKEKTIYLTFDNGYENGYTPKVLDVLKKHRVTGTFFVTGHFVKDQPQLIKRMSDEGHIIGNHSFHHPDLTTKTADQIQDELDSVNEEVYKITGKQDNLYLRPPRGVFSEYVLKETKRLGYQTVFWSVAFVDWKINNQKGKKYAYDHMIKQAHPGAIYLLHTVSRDNAEALDDAITDLKKQGYTFKSIDDLMFEKEMRLPSL	soluble
MKYILVTGGVISGIGKGIIASSIGTILKSCGLRVTAIKIDPYINIDAGTFSPYEHGEVFVLNDGGEVDLDLGNYERFLDINLYKDNNITTGKIYQHVINKERRGDYLGKTVQVVPHITDAVQEWVMNQAKVPVDGNKEEPQICVIELGGTIGDIEGMPFVEAFRQFQFKAKRENFCNIHVSLVPQLSATGEQKTKPTQNSVRALRGLGLSPDLIVCRSSTPIEMAVKEKISMFCHVNPEQVICIHDVSSTYRVPVLLEEQSIVKYFKERLHLPIGAHHHHHH	soluble
MKYMITSKGDEKSDLLRLNMIAGFGEYDMEYDDVEPEIVISIGGDGTFLSAFHQYEERLDEIAFIGIHTGHLGFYADWRPAEADKLVKLLAKGEYQKVSYPLLKTTVKYGIGKKEATYLALNESTVKSSGGPFVVDVVINDIHFERFRGDGLCMSTPSGTTAYNKSLGGALMHPSIEAMQLTEMASINNRVYRTIGSPLVFPKHHVVSLQPVNDKDFQISVDHLSILHRDVQEIRYEVSAKKIHFARFRSFPFWRRVHDSFIEDLEHHHHHH	soluble
MKYQIVTSGFGGQGAVFIVKLLSLCAGIKGEKYLGTENHGMSQRGGSVSCFIKVGDFYTPVIEENQADMIIALEQNEGLRTLQYLKKGGKLIVNADDSLPRLEGCEAIKVDAFSLAKEGRFPAQALNAFMVGVASMQSGFPFDEETLKKGLEMINPKVAESNIQVFELGRACAPRS	not soluble
MKYTVITGASSGIGYAAALAFASRGKNLVLVARRQEELNGLKLKINEMHPELDVVIRKTDLSVTEDVYKLYESLQAFQIETWINNAGFGNFASIAEQNLNKIETMLHVNIEALTILSSLFVRDYSMIDGTQLINVSSGGGYTIVADAVTYCATKFYVSAFTEGLSHELKEQGAKLQAKVLAPAATETEFAKRSFDIDEFQYDNVVPKFHTAKQMAQFMLDLYDNDKVVGIVDGLTYNYELKDPLYNFAVRQKNSNS	not soluble
MLAQQRLDFEFRPMTAADVGNAHELSIALKWPHRLEDWAMLQRVAQGFVAVRNGRLIGSAFACHQGEFSTIGLVIVSDDYQGKGIGRKLMELAVGSIPPRTAILNATLAGAPLYEKMGFVSFGEIQQRQGQAQLPDATLLTAEESCRVLSEADHDRVLELGNAGSGLDRSVTLGDLLNNLEHAVGIDRDGQLQAFALLRPFGRGLCIGPVVAQTVEQARHMIEHLLARVPYAFVRIDIPTHCGLADWLEAAGLKRVDSVTCMSMGAVPQAREGVSQFALITQAIG	not soluble
MLASFLKLKTYCEQEGFKGWDPYDGLNSKVFRALPLLKQSALCRLIVIQGFKRSPINLRRLALVPKEYNAKGIGLFLQGYCNLYRLVERNPQLTKELGSREELLEQVKKLADLLLELRSPGDYSGACWGYNFDWQARRLFLFPKYTPTVVATNFCATALMEAYEVTRQQEYLDVALSAAQFVIKDLHRTAYRDGFLFSYSPLDGNDTVFNASLLGARLLSYCYHYTKDEAYRTLARQTISACCAAQAEDGSWVYGMLPVQSWIDSFHTGYNLDALIAYQELTGDISFAENIERGLSYYLEHFFEADGMPKYYHDRTYPIDIHCPGQLFVSLARLHRYDEHRELVDRVMAWTISSMQDKKGYFYYQMKPGLSSKIPYMRWSNAFMFCAMSYYLINYKEISGGDFSNDQ	not soluble
MLASMTGYAAVSREIPQGSLALELRSVNNRYLDLQFRLPDELRALESEMRDFLGSGLTRGKVDCRLTFSSYSNSYRQQRLNRDLLQDLQIMSDEIKSIFPAAGDFSVAEILRWPGVLDSDHISIDDLRTPCMALLQTALQELVSARKREGEKLHNLLLERVQRMRQLVLDLLPGLPAILASFQERLLNSLKAAGLDEKDERIRQEFTLFANRVDVDEELSRLQGHLNEFEHILLAGGVVGKRLDFLTQELNREANTLASKSVAREVTRIAVEMKVLIEQLREQIQNIE	not soluble
MLCTHIKAEDCVERVPKGMFRKKQDMEDNNLFLEGNSNRGKVVKNQEIIKTFCDECDNCNKSLMCLTCGRILCGRNDSGHALHHFEETSHPVVIDCISFELYCYSCDDEVSLDFEPSLYGVLKSLKLLFDREDVMEGGDGPTIPAQPFHSRKNRISHEKSDKLRFSVKKTPIFLRNSIFLSGISENFDFSVKNGKKHQKSIFPPKKPKKSDLSAQKTSKSVFAPKQPKNSEFFNPKKHQISIFPTKNPQKFLFSVEKSIFSTINVQKCAPKKHQISIFPPKKPKNSDFPLKNPQFSFRTVTSVASTFTQKLHVAPASRNSKKKRGKKGKVSPMFVDTPPFQQQQGAAVIHDVTLSSTNSTSSGSGGATSSSEIAYRPRGMRNVGNTCFMNAVLQALASISEFREYIMSLSSLEDYIHDEKEPKNGGNYCYLTDEYRKLLISQSARSFREPTAPNEFREAFISVCPRFRGFRQHDSHEFMRYFMDSLHTEMRKCRKLPGMPDDKHTPISKYFEGTLQSSVICQTCRNCSNKIDEFMDLSLDIPAQRNASKVRLSDCLSTFFKLEMLEKGEKPECAKCKTKQTCSKQMFIRKLPQDSDEAPCTYSLQSIIVHIGYGCGSGHYIAFGKRNGRWFQFDDTVVKGVDEAHVSKQKAYVLLYTKIIRKID	not soluble
MLDTLLINIGQLLTMDQEDGLLRREAMNTLPVIENGVVGIENGVITFVGTAEEAKGLQAKEVIDSGGKMVSPGLVDPHTHLVFGGSRENEIALKLQGVPYLEILEQGGGILSTVNATKQASKEELVQKAKFHLDRMLSFGVTTVEAKSGYGLDDETEWKQLEATAQLQKEHPIDLVSTFLGAHAVPKEYKGRSKEFLQWMLDLLPEMKEKQLVEFVDIFCETGVFSVEESKEFLLKAKELGFDVKIHADEIDPLGGAEAAAEIGAASADHLVGASDKGIEMLANSNTVATLLPGTTFYLNKESFARGRKMIDEGVAVALATDFNPGSCPTENIQLIMSIAMLKLKMTPEEVWNAVTVNSSYAINRGDVAGKIRVGRKADLVLWDAYNYAYVPYHYGVSHVNTVWKNGNIAYTRGEQSWSTATI	not soluble
MLEFVMREWKKSRKLLGQRLFNKLMKMTFYGHFVAGEDQESIQPLLRHYRAFGVSAILDYGVEEDLSPEEAEHKEMESCTSAAERDGSGTNKRDKQYQAHRAFGDRRNGVISARTYFYANEAKCDSHMETFLRCIEASGRVSDDGFIAIKLTALGRPQFLLQFSEVLAKWRCFFHQMAVEQGQAGLAAMDTKLEVAVLQESVAKLGIASRAEIEDWFTAETLGVSGTMDLLDWSSLIDSRTKLSKHLVVPNAQTGQLEPLLSRFTEEEELQMTRMLQRMDVLAKKATEMGVRLMVDAEQTYFQPAISRLTLEMQRKFNVEKPLIFNTYQCYLKDAYDNVTLDVELARREGWCFGAKLVRGAYLAQERARAAEIGYEDPINPTYEATNAMYHRCLDYVLEELKHNAKAKVMVASHNEDTVRFALRRMEELGLHPADHQVYFGQLLGMCDQISFPLGQAGYPVYKYVPYGPVMEVLPYLSRRALENSSLMKGTHRERQLLWLELLRRLRTGNLFHRPA	soluble
